In patent publication US7666835B2 (Imperial Innovations Limited, priority 2001, dated 2010):

What was measured:
[1] = ICV injection, food intake in 24-h fasted rats (studies 1a, 2a); type: in vivo, rat; conditions: study 1a; 3 nmol ICV; 24-h fasted rats; vs saline
From the text: (§1) Animals had permanent stainless steel guide cannulas (Plastics One, Roanoke, Va.) stereotactically implanted ICV or iPVN.

[2] = iPVN injection, food intake in 24-h fasted rats (studies 1b, 2b); type: in vivo, rat; conditions: study 1b; iPVN; OXM, GLP-1 (3 nmol [sic]), exendin-4 0.03 nmol, glicentin, glucagon 1 nmol, SP-1 3 nmol; fasted rats
Protocol: as §1
Therefore, exendin-4 was injected iPVN at a dose of 0.03 nmol.

B1: glicentin (peptide, UniProt P01275 21-89, looked up)
Glicentin: RSLQDTEEKSRSFSASQADPLSDPDQMNEDKRHSQGTFTSDYSKYLDSRRAQDFVQWLMNTKRNRNNIA
modifications: Glicentin
notes: proglucagon-derived peptide purchased from Peninsula Laboratories
Question: With B1 as the molecule, how does the “refeeding (food intake) after ICV injection” value [1] read?
Answer: The value was “failed to affect food intake at any time point”.

Question: What about the “refeeding (food intake) after iPVN injection” value [2] of the same molecule?
Answer: Its value is “failed to affect food intake at any time point”.
